Data from the domain aggregation screens of Martell et al. (2025).

Test: soluble fraction after stress (log2 fold change); higher = more stays soluble; pooled small domains, quantitative proteomics
Details: stress: 75 degC
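Note: 20 min heating vs room temperature control held 20 min.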

| Sequence | soluble fraction (log2) |
| --- | --- |
| HMDLEMLEVEDTIKDLLSQHQKINAIKYYRNYMSEQLNVDMGLRQAKDTIDAIGRGATVDLSVGY | -0.0747 |
| HMDLIEVLAQDTIKKIYNTYVAYKNKVDVFYVAFSGGKDSIVTLDLVQRTLPHNEFKVLFGDTGM | 0.243 |
| HMDLIFQKGDLVFSTEHNQRGIFYEYLEQGQAKISIEKQFFVVAARRLQLLTKREVLYPAGYDLDQLFV | -2.21 |
| HMDLKENQHILQISNKGVQMGNVLKDLIIQTLNITNGNQIKAAKLLAISRAKLRYRIEQLGINISGKNI | 0.000197 |
| HMDLKHNQITMRELLRNKQAYLLLYKEFPMFMTPAILQNIRPLTLQQIIQMVRPYISRPKLNMLLEQLENI | 0.164 |
| HMDLMQRVIIVRPVMQGDYLTRAHLGLQTLSRNGGGGFTDIDDLVGRRAKKSLRAGLVVHNRHL | -0.813 |
| HMDLPAEFSKPELETLFKRGKQSGELSLTEVRDALEAAQLPNKKTQTKVLKVLSDNAIHVLMDG | 0.0744 |
| HMDLPDFTSRERDILARVVQGDSNERIAASLGVSVSTVKTHIGNILRKTGQTNRVRLIVWATRHL | -2.58 |
| HMDLPDYYFRVRENGAVVFRVGTENRQRRIEMVEIATVNVKNGNIKPHGEVDLTKADRLAIGEWLAARQAQ | -1.54 |
| HMDLPRQSQYQALVVSYARRAGIDEAEEDLLAAFEVWRMRHNHDLAGGRTARDFILAYLPQYQRHKE | -1.98 |
| HMDLQNIQNQLNTEFAKSDTRIIFWFDDKGEYEDEVSELQLGDVKLHILDGLNWFYSKYLLNEA | -0.141 |
| HMDLRAPKPIKEMGEEYIKLYQYLRKGESENIVMSKMNISLDDYDYMRSEIEDKLSLYNMLDLLRKP | -0.978 |
| HMDLRVKRTNKMIMEAFIHLVEQKGYDNITVQEIADEAMINRATFYAHFKDKQDLYDHIFKQAI | -0.902 |
| HMDLSPEQAELAAIRGELGIKIDDYALALNIPRDRLTSYLYGRANVPAEVLISARELRYASSA | -0.0206 |
| HMDMQNIQKGLSAIEPGRTFSREEYYAAIQNGSEMLLKEDALAYSLRKSLSDGDIVRVSWNQYAIP | -0.107 |
| HMDMTPEEFLAWARHKPFGDPFPKTQTVTFLVPLLGVSRTNIFTWISGKVNPSKTSLLLMEALKRENR | -0.493 |
| HMDNEIEQIVEDLNLTLSSLKYTKNQIESILPLIIKEIDDFKKKEKNISFENLLKLAMNHLDND | -0.38 |
| HMDNEIRIPLPSLQRDGFSIGTREDDGSQLVRIMSAGSFGGMIRSFRLPEGMRIEGAKWEGEIVSIRL | -0.00847 |
| HMDNEVTIAVQVNGKLRDKLIVALDTPNEKIEQLALALPKVIQNTSGLTVRKVIVIPNRLVNIVA | -1.92 |
| HMDNIKRGEMFYISRGGASYSGSEQHSDRPAVVVSNDKNNENSNVVEVVYMTTQPKTDLPTHVTVR | 0.0515 |
| HMDNLKELDEILETYGKKKGYLITILQKAQDAYGYISIDIMNRISEFTGIKVAKIYGVATFYAQFRL | 0.0785 |
| HMDNPLSQQEKRILQLISLGKTNQEIADILYLSNGTVRNYISSILNKLSANNRVEAARIAEEHGW | -0.755 |
| HMDNPNVMAQVKSLLASKGLSEQEVKERLKAKGLNIDAMSDAEIAQNRSVIEQTIAELEAEKKKAG | 0.205 |
| HMDNPYEVFIPNSYIGQRLDQTLASLFPQFSRSRLQNWLASGNLLVNGKIVKPKTKILGGEQINILDPYN | -0.608 |

| Sequence | soluble fraction (log2) |
| --- | --- |
| HMDNTFEEVKEKLLDLLKERPLTPAEVSKRMEEDKNILAQVIQYLLEEEIIKTEDGMLSKVIG | -0.038 |
| HMDNWYIAFNSFLSQNKLTAKNVSELTGLSKPTIDSYKQGKRKPTDENMQIIKDKLGFNISEILYN | -0.0615 |
| HMDPDDEILINIMTKLLTEKQIIIKNKEIFNFLLKRINRTYEEVYNLINKMDKLSLEKKKQLTIPSIKEL | -1.71 |
| HMDPEEETLKNMQRMLQDSGPLKKTEFSLLAKSLGIAEKKARKLIDRGRGRFWTVESGEQKNTQLVTPIQ | -0.108 |
| HMDPERVVGQTGIVHLRIPARQHNTGKVMIEVQGSLREFDAVSEAEEIPTGTPILIVGRTEEGVFIAQPF | -0.286 |
| HMDPGPVLISAQVLDDLEAIRRDGSSNMLDWPAVARLAEVMGMDRTAAWVRTHHREYSAGIFRGFASD | -1.93 |
| HMDPHEEELLRQLIRGDIAGYEVLFHKYYPTFFAFIKGMTKETVVAEDITQNIFMKVWLNRERLDAA | -0.145 |
| HMDPIATLTPREREVLSLMAEGRSNGAIAAALVVGDGAVEKHVSNIFQKLELTPAEGDHRRVLAVLRWLE | -0.909 |
| HMDPLADLFSRIRNAQMRNKKVVTSPASKLRAGILEVLAKEGYIRGYAMTQHASGKNELDIELN | -1.05 |
| HMDPNAITSAQVTKLQVLANEKGFAERQARLTMWAEVIGRNVGTANELTKAEAHKLIEHMDALPV | -0.691 |
| HMDPNFKYIIRIANSDVSGEQKLAYALTSIRGIGERTSNAIIQKLGLDSTQLAGKLTDKNVEDIESA | 0.092 |
| HMDPPQEVWDLTRSYLDSMNRPVHGHKSPQETYLRQVKSHRLPATALWDYFMAQRFHAVHATSESAA | -0.127 |
| HMDPPYKDKNLHELLLKINNLNILKKDSVIILHRHKKQKEIFPSNFKIIEQKQYGISKIIFLTVL | -0.00334 |
| HMDPRTSSLTPQERKVLELVGGGLTNRQIAAEMFLAEKTVKNYVSSLLAKLGFERRTQAAVFIASPAF | -0.54 |
| HMDPSKLVEVQEPVSMKALSEGLGIKVTELIATFAFKLKIGGKNINSMLSNDEVELVALDLERNIKVV | 0.258 |
| HMDPTEPLFVGVVTAEPYLNIREYPTTQSKDLGDLFPGMHVNVYEIVPNWYRIDDGWVASAWVKRDWGGG | -0.478 |
| HMDPTIRRGELIDAASRLFLSKGYAATSVRDILDEVGNRTASPSVFYYYFKSKEEIYQAVLRRHSE | -1.51 |
| HMDPTVSGQTGSVVREIRPGVPGEVELSVPLYGIRRWQAMADGILAEGTRVTVIQAEGVRLSVRPV | -1.24 |
| HMDPTVTFIVQVNGRVRDKITLSSDISENEAKNVALESPKITPHISGKSLSRVIFVPGKLINLVV | -1.06 |
| HMDPVATLTPREREVLELMAEGRTNAGIAEAMVVTEGAVEKHIQRIFAKLGLHADGGVHRRVAAVLALLG | -1.38 |
| HMDQDIILHKVQPGDTLSKILLHYHSHQDRNKLQGLIAESMTANPFIKNPDLIYPGQLIQVPVPA | 0.0879 |
| HMDQFMLQSAWLRAVQHVMKHTDDVGTQFAEEARRMHYGEADERPIRGQATSDEARALHDEGIEVMALPI | -0.36 |
| HMDQILIHLKEGIDVTDVQPMLKALDLNVRMFNRDKNIIVISVLNRELDAIPQTIAALRPWEELFDSA | 0.171 |
| HMDQNVSVPKLAGLQVEEANAILKSKGLHIEIIDSIYQKDAVPGAIIEQVPEENSKVKKGRAIYVSVYAK | -0.65 |

| Sequence | soluble fraction (log2) |
| --- | --- |
| HMDQVYYDLKSLIELLPADQMEVLKMRYFEELSFKKIAQKIDVSINTALGRMRYALINLRALSKKHHID | -0.272 |
| HMDRDMGSMTDFENVRDAYLTGKVWNVGDLIEANGITGIIIRKGTNYVSYNDGDGKVHKAWLHDITL | -0.802 |
| HMDREILWTNYVAARKQEFIASSIDTIGAEYLDNRRFWDTQFEREWTIIAERLASGFGLTDDILSIVGSDF | -4.12 |
| HMDRETEEYELIRAKLEWLYQKQTGTIRNQTAKILHHLEIAKEEGNYYLYLKIKEEAKQWLVQASMYLD | -0.638 |
| HMDRGDVTREALIKAAIEIFGRDGFHAASTRAIAERAGANQALIGYHFRGKLGLYHATFEYIIGKI | -0.351 |
| HMDRMINYSPIVAKVPQDDYTTKVYNIPIYSELTVVDKISEPEPLIAPIYRFKYITPEDEEIEFDIPV | -0.00941 |
| HMDRMMQPETWGRVYQWITDDPQVPDREEVLTLIKYHYGDFGKLMKLLHRLNEGKAWTYLSEHIFPRM | -0.254 |
| HMDRNEFVSTLRAALTGAVSPAIVEDNVRYYQNYISQEIASGKSEKEVLDGLGDPRLIARTIIDT | 0.0747 |
| HMDRNIVYSDFIRSVNQGQVSEVLVQGDNIRGRYLNGKVFQTFAPKDPSLISTLRNKGVRISAEPA | 0.00952 |
| HMDRRSTTLQDIYTRIDAEEISEALELIPKLGEIEFEQNRAEIAEAAGVRPAVLDKLRKQAAKQENNKK | -0.00584 |
| HMDRSAQVLFLEHARSRLPQRIQWAEELAELLSIGIDSAYRRIRGETALTFNEAVSVSRKYDISLDYLFK | -3.79 |
| HMDRSKREKEQQELMLKVQQIFDDNQQRFGAEKIRTVLAQNGVRVSVKRVSAIMQELNLRSIR | -2.36 |
| HMDRVMPVPEALIGMRFDIAVSRMLGVSRSQAAAYIDRGQVSIAGRGSQRSAQKSEKLVQGDSIEVAIA | -1.39 |
| HMDRWSLLTLTTLAGGTLRFTELKRAIGDISQRMLAQTLRTLEREGYVSRKVYATIPPKVEYRLTALGQSL | -3.21 |
| HMDRYAVRAEELAAALAQYHRHVGVYPENLEDLIAPTGPRGYRGPYLSELPTNPSTSKPDWGYDPATGRVS | 0.432 |
| HMDSAFVSDIRDAFDEAGVDSYRFFGTHSFKRGGVQLYRLLGVSDQEIKERGHWQTFSAYFAYVQA | 0.164 |
| HMDSESGAIIRRAVAQLAPKFRSTIVLRLIEGYSTEETAQILQLPVGTVLSRLARAKVQLMNLLTPYKEL | -0.0893 |
| HMDSIDIDAETKSLGPNAPQIIKGIKEWGQGLVAKGVWSDQDFEEFKVFAATANGINALNKVRKFY | -0.037 |
| HMDSIDVQQKKLLTDIELGNIEGIKLFLKRHNNTINFLTIKGFHPLVYAVRNNNMEIVNLFLTT | 0.149 |
| HMDSIGTQIRKLREEAEMPLRKLSALLDIDQSTLSKIERDERRANTQMIEQIAKIFKVNKEQLLVA | -0.77 |
| HMDSKPNDLLFVYVSQLIRSLTLNSSKKDSELADELEVSISQIRIWLKKLINEQLIVKESKPVKYRWKG | -2.84 |
| HMDSLARKTVNGAEFYIYPVESAEGFYSLRRKFGVSQEEVIKYNPSAQNGLKSGQVLLIPVT | -0.298 |
